The values that follow come from the nanobody polyreactivity screen of Harvey et al. (2022).

The nature of the data set: yeast display, Sf9 membrane polyspecificity reagent, FACS + sequencing; frameworks hold sequencing errors. In a few lines: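 Using colony PCR, genes from sorted yeast display clones were amplified, then sequenced on MiSeq at 2 × 250 and filtered by CDR length. The clones had been stained with 10% biotinylated, detergent-solubilized Sf9 membrane reagent for 1 hour at 4 °C and sorted by FACS into low and high (top ~1%) gates on anti-HA and streptavidin fluorescence. Polyreactivity labels come from the gate of origin.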
“QVQLVESGGGLVQAGGSLRLSCAASGRTFYYNAMGWYRQAPGKERELVAAITYSGGSTYYADSVKGRFTISRDNAKNTVYLQMNSLKPEDTAVYYCAADVYRPAGNWEHYYWGQGNQVTVSS”: the “polyreactivity (PSR sort gate)” value is “low polyreactivity”.
Consider “QVQLVESGGGLVQAGGSLRLSCAASGRTFYYNAMGWYRQAPGKERELVATITSGGSTNYADSVKGRFTISRDYAKNTVYLQMNSLKPEDTAVDYCATTRYRTYADVNSRYGYWGQGTQVTVSS”, for which the “polyreactivity (PSR sort gate)” value is “low polyreactivity”.
In the case of “QVQLVESGGGLVQAGGSLRLSCAASGRTFYYNGMGWYRQAPGKERELVATITNGGSTNYADSVKGRFTISRDNAKNTVYLQMNSLKPEDTAVYYCAKTLASDCYDYWGQGTQVTVSS”, the “polyreactivity (PSR sort gate)” value is “low polyreactivity”.
The entry for “QVQLVESGGGLVQAGGSLRLSCAASGRTFYYYAKGWYRQAPGKERELVARISRCGSTNYADSVKGRFTISRDNAKNTVYLQMISLKPEDSAVYYCAAGWRGGRYRYFAYDYWGQGTQVTVSS” is “high polyreactivity”.
“QVQLVESGGGLVQAGGSLRLSCAASGRTFYYYAMGGYRQAPGKERELVAAIRGGGGSTYADSVKGRFTISRDNAKNTVYLQMNSLKPEDTAVYYCNVVRTGRYPGFLTFDYWGQGTQVTVSS”: the “polyreactivity (PSR sort gate)” value was “high polyreactivity”.
The entry for “QVQLVESGGGLVQAGGSLRLSCAASGRTFYYYAMGWHRQAPGKERELVARIRSGGSTNYADSVKGRFTISRDNAKNTVYLQMNSLKPEDTAVYYCAAVRPPTPSRRREDYWGQGTQVTVSS” is “low polyreactivity”; for “QVQLVESGGGLVQAGGSLRLSCAASGRTFYYYAMGWYRQAPGKEREFVAAIRFSGGNTYYADSVKGRFTISRDNAKNTVYLQMNSLKPEDTAVYYCAARRLLYKYWTGGPYDYWGQGTQVTVSS” it is “high polyreactivity”; for “QVQLVESGGGLVQAGGSLRLSCAASGRTFYYYAMGWYRQAPGKERELVAAIRWSTGSTYYADSVKGRFTISRDNAKNTVYLQMNSLKPEDTAVYYCAADTWYIQWGYYWGQGTQVTVSS” it is “low polyreactivity”.
Regarding “QVQLVESGGGLVQAGGSLRLSCAASGRTFYYYAMGWYRQAPGKERELVAAISSSTGRTYYADSVKGRFTISRDNAKNTVYLQMNSLKPEDTAVYYCAKYRVFGYQFDYWGQGTQVTVSS”, the “polyreactivity (PSR sort gate)” value was “high polyreactivity”.
With “QVQLVESGGGLVQAGGSLRLSCAASGRTFYYYAMGWYRQAPGKERELVAAITSTGGSTYYADSVKGRFTISRDNAKNTVYLQMNSLKPDDTAVYYCAADQVWGYDSWGQGPQVTVSS”, the “polyreactivity (PSR sort gate)” value is “low polyreactivity”.
Under “QVQLVESGGGLVQAGGSLRLSCAASGRTFYYYAMGWYRQAPGKERELVASITSGDGTYYADSVKGRFTISRDNAKNTVYLQMNSLKPEDTAVYYCAADIFYKFSYYPWYPYRDYYYSGQGTQVTVSS” stands “low polyreactivity”; under “QVQLVESGGGLVQAGGSLRLSCAASGRTFYYYAMGWYRQEPGKERELVAAISWSGGRTYYADSVKGRFTISRDNAKNTVYLQMNSLNPEDTAVYYCNAEPPRGYTVSSGGEMDYWGQGTQVTVSS”, “low polyreactivity”; under “QVQLVESGGGLVQAGGSLRLSCAASGRTFYYYAMVWYRQAPGKERELVAAINSGGSTNYADSVKGRFTISRDNAKNTVYLQMNSLKPEDTAVYYCAKRAYTTVYGPVNYGFNYWGQGTQVTVSS”, “low polyreactivity”.
As to “QVQLVESGGGLVQAGGSLRLSCAASGRTFYYYARGWYRQAPGKERELVAAINTRGVSTYYEDSVKGRFTISRDNAKNTVYLQMNSLKPEDTAVYYCNKGFSYGRDYWGQGTQVTVSS”, the “polyreactivity (PSR sort gate)” value is on record as “high polyreactivity”.
Under “QVQLVESGGGLVQAGGSLRLSCAASGRTFYYYTMGWYRQAPGKERELVAAITHGGSTYYADSVKGRFTISRDNAKNTVYLQMNSLKPEDTAVYYCNAVYHYPYEYWGQGTQVTVSS” stands “high polyreactivity”; under “QVQLVESGGGLVQAGGSLRLSCAASGRTFYYYTMGWYRQAPGQERELVAAISVSGGTTYYADSVKGRFTISRDNAKYSVYLQMNSLKPDDTAVYYCAAGDGWGRRYYWGQGTQVNVSS”, “high polyreactivity”.
Turning to “QVQLVESGGGLVQAGGSLRLSCAASGRTFYYYVMGWYRQAPGKERELVAAISARDGSTYYADSVKGRFTISRDNAKNTVYLQMNSLKPEDTAVYYCNVRALYTRRYDYWGQGTQVTVSS”, the “polyreactivity (PSR sort gate)” value is “high polyreactivity”.
The entry for “QVQLVESGGGLVQAGGSLRLSCAASGRTGVNAMGWYRQAPGKERGLVAAINTSVGRTYYADSVKGRFTISRDNAKNTVYLQMNSLKQEDTAVYYCNTDRLGAARYDYWGHGTQVTVSS” is “low polyreactivity”; for “QVQLVESGGGLVQAGGSLRLSCAASGRTIAAYAMGWYRQAPGKERELVAAISRSGGSTYYADSVKGRFTISRDNAKNTVYLQMNSLKPEDTAVYYCAAYYIVSSLFGYWGQGTQVTVSS” it is “high polyreactivity”; for “QVQLVESGGGLVQAGGSLRLSCAASGRTIHFNTMGWYRQAPGKERELVAAIRWGGNTYYADSVKGRFTISRDNAKNTVYLQKNSLKPEDTAVYYCAADRWYYFLMYYWGQGTQVTVSS” it is “low polyreactivity”.
Regarding “QVQLVESGGGLVQAGGSLRLSCAASGRTIKKYAMGWDRQAPGQEREFVAAITGSGGSTYYADSVKGRFTISRDNAKNTVYLQMNSLKPEDTAVYYCAAYAYGVWHSQDGGNYWGKGTQVTVSS”, the “polyreactivity (PSR sort gate)” value is “low polyreactivity”.
The entry for “QVQLVESGGGLVQAGGSLRLSCAASGRTIKRYAMGWYRQAPGKERELVATISRSGSSTYYADSVKGRFTISRDNAKNTVYLQMNSLIPEDTAVYYCNAYVPDIWVNGYDSWGQGTQVTVSS” is “high polyreactivity”; for “QVQLVESGGGLVQAGGSLRLSCAASGRTIKSNDMGWYRQAPGKERELVSAISRRGGSTYYADSVKGRFTISRDNAKNTVYLQMNSLKPEDTAVYYCAADLTFSYRQSAGRYSTYGYWGQGTQVTVSS” it is “high polyreactivity”; for “QVQLVESGGGLVQAGGSLRLSCAASGRTINRYAMGWYRQAPGKERELVAAISTSGGTTYYADSVKGRFTISRDNAKNTVYLQMNSLKPEDTAVYYCNARALAYWGQGTQVTVSS” it is “high polyreactivity”.
For “QVQLVESGGGLVQAGGSLRLSCAASGRTINRYDMGWYRQAPGKERELVAAISTSGGTTYYADSVKGRFTISRDNAKNTVYLQMNSLKPEDTAVYYCNARALAYWGQGTKVTVSS”, the “polyreactivity (PSR sort gate)” value was “high polyreactivity”.
As for “QVQLVESGGGLVQAGGSLRLSCAASGRTIPIYAMGWYRQEPGKERYLVAAITYSGGSTYYADSVKGRFTISRDNAKNSVYLQMNSLKPEDTAVYYCAVDGTKPYWHQRYVYWGQGTQVTVSS”, the “polyreactivity (PSR sort gate)” value is on record as “low polyreactivity”.
As to “QVQLVESGGGLVQAGGSLRLSCAASGRTIQYYTMGWYRQAPGKERELVAGITYRGSSTYYADSVKGRFTISRDNAKNTVYLQMNSLKPEDTAVYYCAAGYWAYVWYYYWGQGTQVTVSS”, the “polyreactivity (PSR sort gate)” value was “high polyreactivity”.
As to “QVQLVESGGGLVQAGGSLRLSCAASGRTIRGYTMGWYRQAPGKERELVATITKRGGSTTYADSVKGRFTISRDNAKNTVYLQMNSLKPEDTAVYYCNKDTITSTWTPYTSWFGYWGQGTQVTVSS”, the “polyreactivity (PSR sort gate)” value is on record as “high polyreactivity”.
For “QVQLVESGGGLVQAGGSLRLSCAASGRTIRLYGMGSYRQAPGKERELVAAITWSGGRTYYADSVKGRFTISRDNEKNTFYLQMNSLKPEDSAVYYCAAGNSSYGKPKYYYWGQGTQVTVSS”, the “polyreactivity (PSR sort gate)” value is given as “high polyreactivity”.
Under “QVQLVESGGGLVQAGGSLRLSCAASGRTIRSYAMGRSRQAPGKEREWVAAISWSGGRTYYADSVKGRFTISRDNAKYTVYLQMTSLKPEDTADYYCAARVSVGVPRYEYWGQGTQVTVSA” stands “high polyreactivity”; under “QVQLVESGGGLVQAGGSLRLSCAASGRTISHNVMGWYIKAPGKERELVAAISRNGGRTYYADSVKGRFTISRDNAKNTVYLQMNSLKPEDTAVYYCAKRRSYFLHSYYSYGYWGQGTQVTVSS”, “high polyreactivity”.
“QVQLVESGGGLVQAGGSLRLSCAASGRTISINAMGWYRQAPGKERELVADISKSGGRTYYADSVKGRFTISRDNAKNTVYLQMNSLKPEDTAVYYCAKGAYYVPVIYHAVYSWGQGTQVTVSS”: the “polyreactivity (PSR sort gate)” value is “low polyreactivity”.
Turning to “QVQLVESGGGLVQAGGSLRLSCAASGRTISRYAMGWYRQAPGKERELVATITSGGSTNYADSVKGRFTISRDNAKNTLYLQMNSLKPEDTAVYYCNAQSWYIVPYDYWGQGTQVTVSS”, the “polyreactivity (PSR sort gate)” value is listed as “low polyreactivity”.
As for “QVQLVESGGGLVQAGGSLRLSCAASGRTISYAMGWYRQAPGKERELVAAIRYRGGSTYYADSVKGRFTISRDNAKNTVYLQMNSQKPEDTAVYYCAAQDSYTPPILFRRGYLRYDYWGQGTQVTVSS”, the “polyreactivity (PSR sort gate)” value was “low polyreactivity”.
The entry for “QVQLVESGGGLVQAGGSLRLSCAASGRTIVIYAMGWYRQAPGKERELVAAIRSGGRTNYADSVKVRFTISRDNAKNTVYLQMNSLIPEDTAVYYCATRGWLRSGYDYWGQGTQVTVSS” is “high polyreactivity”; for “QVQLVESGGGLVQAGGSLRLSCAASGRTIWRYAMGWYRKAPGKERELVAAISWSGTSTYYADSVKGRFTISRDNAKNTVYLQMNSLKPEDTAVYYCAVAYPFYGKTLFSPQADYNYWGQGTQVTVSS” it is “high polyreactivity”; for “QVQLVESGGGLVQAGGSLRLSCAASGRTIWTYVMGWYRQAPGKERELVAAISRSGSSTYYADSVKGRFTISRDNAKNTVYLQMNSLKPEDTAVYYCNKVDGTTLDDHYMDYWGQGTQVTVSS” it is “low polyreactivity”.
The entry for “QVQLVESGGGLVQAGGSLRLSCAASGRTIYQYAMGWYRQAPGKERELVAAISRGGSTNYADSLKGRFTISRDNAKNTVYLQMNSLKPEDTAVYYCASWYKFLSLKRLYERDYWGQGTQVTVSS” is “high polyreactivity”; for “QVQLVESGGGLVQAGGSLRLSCAASGRTIYRYDMGWYRQSPGKERKFVAPISWSGGRTYYADSVKGRFTIARDNAKNTVYLQMNSLKPEDTAVYYCAAEYPWSVGYWRYGLDDYWGQGTQVSVSS” it is “high polyreactivity”; for “QVQLVESGGGLVQAGGSLRLSCAASGRTIYSYAMVLNTQAPGKERELVAAISRRGGSTYYADSVKGRFTISRDNAKNTVYLQLNSLIPEDTAVYYCAKRYTPLPYKGIWYYYWGQGTQVTVSS” it is “high polyreactivity”.
